± gives the uncertainty stated by the source.
Test: melting temperature (ThermoFMN); higher = more thermostable
Description: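 Purified His-tagged ene reductases (1 mg/ml) in 50 mM sodium phosphate pH 7.4 with 0-30% (v/v) organic co-solvent. Melting temperature was measured by the ThermoFMN assay (FMN fluorescence, 20-90 °C at 1 °C/min, inflection point, triplicate). Specific initial activity was measured with 10 mM cyclohex-2-enone and 0.2 mM NAD(P)H (NADH for LacER) as A340 depletion, at room temperature (DMSO, 2-propanol, n-propanol) or 25 °C (EtOH, MeOH), in triplicate. The TsOYE Tm is above the 90 °C measurement range.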

[1] = co-solvent: 2-propanol, co-solvent concentration (% v/v): 0
[2] = co-solvent: 2-propanol, co-solvent concentration (% v/v): 5
[3] = co-solvent: 2-propanol, co-solvent concentration (% v/v): 10
[4] = co-solvent: 2-propanol, co-solvent concentration (% v/v): 15
[5] = co-solvent: 2-propanol, co-solvent concentration (% v/v): 20
[6] = co-solvent: 2-propanol, co-solvent concentration (% v/v): 25
[7] = co-solvent: 2-propanol, co-solvent concentration (% v/v): 30
[8] = co-solvent: dimethyl sulfoxide, co-solvent concentration (% v/v): 0
[9] = co-solvent: dimethyl sulfoxide, co-solvent concentration (% v/v): 5
[10] = co-solvent: dimethyl sulfoxide, co-solvent concentration (% v/v): 10
[11] = co-solvent: dimethyl sulfoxide, co-solvent concentration (% v/v): 15
[12] = co-solvent: dimethyl sulfoxide, co-solvent concentration (% v/v): 20
[13] = co-solvent: dimethyl sulfoxide, co-solvent concentration (% v/v): 25
[14] = co-solvent: dimethyl sulfoxide, co-solvent concentration (% v/v): 30
[15] = co-solvent: ethanol, co-solvent concentration (% v/v): 0
[16] = co-solvent: ethanol, co-solvent concentration (% v/v): 5
[17] = co-solvent: ethanol, co-solvent concentration (% v/v): 10
[18] = co-solvent: ethanol, co-solvent concentration (% v/v): 15
[19] = co-solvent: ethanol, co-solvent concentration (% v/v): 20
[20] = co-solvent: ethanol, co-solvent concentration (% v/v): 25
[21] = co-solvent: ethanol, co-solvent concentration (% v/v): 30
[22] = co-solvent: methanol, co-solvent concentration (% v/v): 0
[23] = co-solvent: methanol, co-solvent concentration (% v/v): 5
[24] = co-solvent: methanol, co-solvent concentration (% v/v): 10
[25] = co-solvent: methanol, co-solvent concentration (% v/v): 15
[26] = co-solvent: methanol, co-solvent concentration (% v/v): 20
[27] = co-solvent: methanol, co-solvent concentration (% v/v): 25
[28] = co-solvent: methanol, co-solvent concentration (% v/v): 30
[29] = co-solvent: n-propanol, co-solvent concentration (% v/v): 0
[30] = co-solvent: n-propanol, co-solvent concentration (% v/v): 5
[31] = co-solvent: n-propanol, co-solvent concentration (% v/v): 10
[32] = co-solvent: n-propanol, co-solvent concentration (% v/v): 15
[33] = co-solvent: n-propanol, co-solvent concentration (% v/v): 20
[34] = co-solvent: n-propanol, co-solvent concentration (% v/v): 25
[35] = co-solvent: n-propanol, co-solvent concentration (% v/v): 30

Sequence | melting temperature [1] [°C] | melting temperature [2] [°C] | melting temperature [3] [°C] | melting temperature [4] [°C] | melting temperature [5] [°C] | melting temperature [6] [°C] | melting temperature [7] [°C] | melting temperature [8] [°C] | melting temperature [9] [°C] | melting temperature [10] [°C] | melting temperature [11] [°C] | melting temperature [12] [°C] | melting temperature [13] [°C] | melting temperature [14] [°C] | melting temperature [15] [°C] | melting temperature [16] [°C] | melting temperature [17] [°C] | melting temperature [18] [°C] | melting temperature [19] [°C] | melting temperature [20] [°C] | melting temperature [21] [°C] | melting temperature [22] [°C] | melting temperature [23] [°C] | melting temperature [24] [°C] | melting temperature [25] [°C] | melting temperature [26] [°C] | melting temperature [27] [°C] | melting temperature [28] [°C] | melting temperature [29] [°C] | melting temperature [30] [°C] | melting temperature [31] [°C] | melting temperature [32] [°C] | melting temperature [33] [°C] | melting temperature [34] [°C] | melting temperature [35] [°C]
MNPKYKPLFEPFTFKSGVTINNRIAVAPMTHYASNEDGTISEAELDYIIPRSKEMGMVITACANVTPDGKAFPGQPAIHDDSNIPGLKKLAQAIQAQGAKAVVQIHHGGIECPSELVPQQDVVGPSDVFDNGKQIARALTEEEVENIVKAFGEATRRAIEAGFDGVEIHGANGYLIQQFYSPKTNQRTDRWGGSDEKRLAFPLAIVDEVKKAASEHAKGAFLVGYRLSPEEPETPGLTMTETYTLVDALGDKELDYLHISLMDVNSKARRGADPTRTRMDLLNERVGNKVPLIAVGSIHSADDALAVIENGIPLVAMGREILVDPNWTVKVKEGREKQIETVIKGTDKEKYHLPEPLWQAIVNTQGWVPYKD | 54 | 46 | 39.3 ± 1.1 | 39.3 ± 4.5 | 33.7 ± 0.58 | 32.7 ± 1.1 | 33.7 ± 0.58 | 54 | 51.7 ± 0.58 | 51 | 50 | 50 | 49.7 ± 0.58 | 49.7 ± 0.58 | 54 | 51 ± 1 | 45.3 ± 1.1 | 42 ± 1 | 38.7 ± 0.58 | 38.3 ± 0.58 | 36.3 ± 0.58 | 54 | 52.3 ± 0.58 | 49.7 ± 0.58 | 43.7 ± 2.5 | 44.3 ± 0.58 | 42.3 ± 1.1 | 40 ± 3.6 | 54 | 43.7 ± 2.1 | 33 ± 1 | 31.3 ± 0.58 | 30.3 ± 0.58 | 29.3 ± 0.58 | 30.3 ± 0.58
MSFVKDFKPQALGDTNLFKPIKIGNNELLHRAVIPPLTRMRALHPGNIPNRDWAVEYYTQRAQRPGTMIITEGAFISPQAGGYDNAPGVWSEEQMVEWTKIFNAIHEKKSFVWVQLWVLGWAAFPDNLARDGLRYDSASDNVFMDAEQEAKAKKANNPQHSLTKDEIKQYIKEYVQAAKNSIAAGADGVEIHSANGYLLNQFLDPHSNTRTDEYGGSIENRARFTLEVVDALVEAIGHEKVGLRLSPYGVFNSMSGGAETGIVAQYAYVAGELEKRAKAGKRLAFVHLVEPRVTNPFLTEGEGEYEGGSNDFVYSIWKGPVIRAGNFALHPEVVREEVKDKRTLIGYGRFFISNPDLVDRLEKGLPLNKYDRDTFYQMSAHGYIDYPTYEEALKLGWDKK | 45 | 44 ± 1 | 41.3 ± 2.1 | 37.3 ± 0.58 | 34.7 ± 0.58 | 33.7 ± 0.58 | 28.3 ± 2.5 | 45 | 44.3 ± 0.58 | 43.3 ± 0.58 | 42 | 40.7 ± 0.58 | 39.3 ± 0.58 | 37.3 ± 0.58 | 45.3 ± 0.58 | 43.3 ± 0.58 | 42 ± 1 | 39.7 ± 0.58 | 37.7 ± 0.58 | 35.3 ± 1.1 | 34.3 ± 0.58 | 46 | 45 ± 1 | 43 ± 1 | 42 ± 1 | 40.3 ± 0.58 | 37.7 ± 1.1 | 34.7 ± 2.1 | 45 | 40.3 ± 0.58 | 34.7 ± 0.58 | 31.7 ± 0.58 | 31 | 30.3 ± 0.58 | 27.3 ± 1.1

From the supplement of paper PMC11208486
